Target: T1, C3 domain of Streptococcus mutans adhesin P1 (recombinant C3 polypeptide, 175-residue construct) (Streptococcus mutans)
T1 chain: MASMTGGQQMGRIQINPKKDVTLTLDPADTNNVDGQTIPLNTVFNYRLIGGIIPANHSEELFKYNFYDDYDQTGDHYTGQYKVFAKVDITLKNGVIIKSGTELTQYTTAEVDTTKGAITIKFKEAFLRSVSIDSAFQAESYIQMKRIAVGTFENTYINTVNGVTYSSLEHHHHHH
Experiment: ITC

B1: A3VP1 (386–864) polypeptide of Streptococcus mutans adhesin P1 (domain or fragment)
chain: AANEADYQAKLTAYQTELARVQKANADAKAAYEAAVAANNAANAALTAENTAIKKRNADAKADYEAKLAKYQADLAKYQKDLADYPVKLKAYEDEQASIKAALAELEKHKNEDGNLTEPSAQNLVYDLEPNANLSLTTDGKFLKASAVDDAFSKSTSKAKYDQKILQLDDLDITNLEQSNDVASSMELYGNFGDKAGWSTTVSNNSQVKWGSVLLERGQSATATYTNLQNSYYNGKKISKIVYKYTVDPKSKFQGQKVWLGIFTDPTLGVFASAYTGQVEKNTSIFIKNEFTFYDEDGKPINFDNALLSVASLNRENNSIEMAKDYTGKFVKISGSSIGEKNGMIYATDTLNFRQGQGGARWTMYTRASEPGSGWDSSDAPNSWYGAGAIRMSGPNNSVTLGAISSTLVVPADPTMAIETGKKPNIWYSLNGKIRAVNVPKVTKEKPTPPVKPTAPTKPTYETEKPLKPAPVAPNYEKE
KD of the site with intermediate binding constant (two-site fit): 35.2 ± 7 µM

— paper PMC7255924 (The FEBS journal, 2019)
